Test results as given in patent US20040038876A1 (published 2004).

B1: mutant 17 (Shh C1II/A169C + N27C), Pyrene-modified (ligand)
chain: not shown
modifications: N-(1-pyrenyl) maleimide on thiol of Cys27, Cys169
B2: mutant 25 (Shh C1II/A169C + S133C), 20 K PEG (ligand)
chain: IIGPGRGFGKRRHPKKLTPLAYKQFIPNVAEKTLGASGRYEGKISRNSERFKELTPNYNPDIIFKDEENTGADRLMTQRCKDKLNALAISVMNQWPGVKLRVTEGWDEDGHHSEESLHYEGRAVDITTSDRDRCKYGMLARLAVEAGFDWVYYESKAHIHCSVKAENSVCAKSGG
modifications: 20 K PEG maleimide on thiol of Cys133, Cys169
B3: mutant 19 (Shh C1II/A169C + Y57C), NEM-modified (ligand)
chain: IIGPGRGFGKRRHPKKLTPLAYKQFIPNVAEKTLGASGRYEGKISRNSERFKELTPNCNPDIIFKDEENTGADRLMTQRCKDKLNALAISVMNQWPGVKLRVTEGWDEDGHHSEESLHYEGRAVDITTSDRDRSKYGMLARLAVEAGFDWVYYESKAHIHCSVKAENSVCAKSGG
modifications: N-ethyl maleimide on thiol of Cys57, Cys169
B4: mutant 19 (Shh C1II/A169C + Y57C), unmodified (ligand)
chain: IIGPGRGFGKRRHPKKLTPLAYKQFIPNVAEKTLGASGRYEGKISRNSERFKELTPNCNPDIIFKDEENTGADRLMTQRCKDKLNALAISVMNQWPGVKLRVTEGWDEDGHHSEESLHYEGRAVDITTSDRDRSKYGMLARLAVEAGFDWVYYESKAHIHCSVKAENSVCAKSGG
B5: mutant 25 (Shh C1II/A169C + S133C), unmodified (ligand)
chain: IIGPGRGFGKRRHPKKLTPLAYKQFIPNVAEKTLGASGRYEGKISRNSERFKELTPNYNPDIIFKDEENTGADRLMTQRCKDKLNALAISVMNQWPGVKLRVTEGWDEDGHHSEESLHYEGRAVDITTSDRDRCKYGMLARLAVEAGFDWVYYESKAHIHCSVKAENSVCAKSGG
B6: mutant 20 (Shh C1II/A169C + N68C), HPE-modified (ligand)
chain: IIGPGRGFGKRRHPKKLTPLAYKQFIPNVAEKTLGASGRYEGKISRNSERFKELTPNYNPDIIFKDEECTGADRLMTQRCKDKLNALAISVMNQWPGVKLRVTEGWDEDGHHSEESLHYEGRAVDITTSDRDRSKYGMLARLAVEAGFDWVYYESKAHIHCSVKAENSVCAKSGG
modifications: beta-(4-hydroxyphenyl) ethylmaleimide on thiol of Cys68, Cys169
B7: mutant 18 (Shh C1II/A169C + N46C), HPE-modified (ligand)
chain: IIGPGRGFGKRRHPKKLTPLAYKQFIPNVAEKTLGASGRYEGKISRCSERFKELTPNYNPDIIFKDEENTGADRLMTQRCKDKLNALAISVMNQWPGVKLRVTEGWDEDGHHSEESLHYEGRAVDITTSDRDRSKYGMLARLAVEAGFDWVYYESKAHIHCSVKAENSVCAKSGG
modifications: beta-(4-hydroxyphenyl) ethylmaleimide on thiol of Cys46, Cys169
B8: mutant 21 (Shh C1II/A169C + N92C), unmodified (ligand)
chain: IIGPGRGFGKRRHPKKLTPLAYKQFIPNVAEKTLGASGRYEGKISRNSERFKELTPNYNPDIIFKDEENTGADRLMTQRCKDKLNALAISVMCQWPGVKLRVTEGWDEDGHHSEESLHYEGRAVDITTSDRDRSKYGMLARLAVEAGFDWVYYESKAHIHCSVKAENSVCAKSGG
B9: mutant 20 (Shh C1II/A169C + N68C), Pyrene-modified (ligand)
chain: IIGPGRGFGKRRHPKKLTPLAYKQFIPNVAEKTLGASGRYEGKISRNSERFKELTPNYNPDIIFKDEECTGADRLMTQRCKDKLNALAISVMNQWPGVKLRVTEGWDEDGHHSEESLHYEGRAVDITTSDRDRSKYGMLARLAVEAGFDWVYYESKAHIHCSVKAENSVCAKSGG
modifications: N-(1-pyrenyl) maleimide on thiol of Cys68, Cys169
B10: mutant 17 (Shh C1II/A169C + N27C), NEM-modified (ligand)
chain: not shown
modifications: N-ethyl maleimide on thiol of Cys27, Cys169
B11: mutant 25 (Shh C1II/A169C + S133C), Pyrene-modified (ligand)
chain: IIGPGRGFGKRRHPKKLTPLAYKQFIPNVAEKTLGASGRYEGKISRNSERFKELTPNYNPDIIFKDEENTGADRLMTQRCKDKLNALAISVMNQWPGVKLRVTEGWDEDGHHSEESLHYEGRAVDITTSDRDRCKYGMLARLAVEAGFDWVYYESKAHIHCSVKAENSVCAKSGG
modifications: N-(1-pyrenyl) maleimide on thiol of Cys133, Cys169
B12: mutant 19 (Shh C1II/A169C + Y57C), Pyrene-modified (ligand)
chain: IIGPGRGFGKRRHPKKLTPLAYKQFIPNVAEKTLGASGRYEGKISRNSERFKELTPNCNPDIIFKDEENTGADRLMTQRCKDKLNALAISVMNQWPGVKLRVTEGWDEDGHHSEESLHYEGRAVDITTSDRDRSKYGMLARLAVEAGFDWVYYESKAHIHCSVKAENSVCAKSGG
modifications: N-(1-pyrenyl) maleimide on thiol of Cys57, Cys169
B13: mutant 21 (Shh C1II/A169C + N92C), 20 K PEG (ligand)
chain: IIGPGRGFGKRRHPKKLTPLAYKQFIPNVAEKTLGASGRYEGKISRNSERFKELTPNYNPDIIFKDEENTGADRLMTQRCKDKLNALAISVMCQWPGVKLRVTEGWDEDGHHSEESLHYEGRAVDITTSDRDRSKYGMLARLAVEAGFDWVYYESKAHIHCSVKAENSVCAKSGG
modifications: 20 K PEG maleimide on thiol of Cys92, Cys169
B14: mutant 24 (Shh C1II/A169C + S112C), 5 K PEG (ligand)
chain: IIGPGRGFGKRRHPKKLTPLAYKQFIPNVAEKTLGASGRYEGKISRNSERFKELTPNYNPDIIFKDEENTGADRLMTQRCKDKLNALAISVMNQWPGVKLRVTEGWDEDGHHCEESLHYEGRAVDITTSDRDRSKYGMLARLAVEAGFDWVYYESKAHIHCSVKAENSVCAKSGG
modifications: 5 K PEG maleimide on thiol of Cys112, Cys169
B15: mutant 24 (Shh C1II/A169C + S112C), Napth-modified (ligand)
chain: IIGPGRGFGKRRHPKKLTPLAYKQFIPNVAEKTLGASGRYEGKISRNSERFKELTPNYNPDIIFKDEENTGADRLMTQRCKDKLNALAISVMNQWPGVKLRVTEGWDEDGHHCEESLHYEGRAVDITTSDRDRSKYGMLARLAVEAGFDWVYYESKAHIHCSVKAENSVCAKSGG
modifications: N-(1-naphthyl) maleimide on thiol of Cys112, Cys169
B16: mutant 17 (Shh C1II/A169C + N27C), HPE-modified (ligand)
chain: not shown
modifications: beta-(4-hydroxyphenyl) ethylmaleimide on thiol of Cys27, Cys169
B17: mutant 22 (Shh C1II/A169C + S154C), NEM-modified (ligand)
chain: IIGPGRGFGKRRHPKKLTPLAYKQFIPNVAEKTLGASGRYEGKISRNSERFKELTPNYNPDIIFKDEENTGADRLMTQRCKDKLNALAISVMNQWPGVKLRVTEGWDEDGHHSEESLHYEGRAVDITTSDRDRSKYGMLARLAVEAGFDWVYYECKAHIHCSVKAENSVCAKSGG
modifications: N-ethyl maleimide on thiol of Cys154, Cys169
B18: mutant 21 (Shh C1II/A169C + N92C), NEM-modified (ligand)
chain: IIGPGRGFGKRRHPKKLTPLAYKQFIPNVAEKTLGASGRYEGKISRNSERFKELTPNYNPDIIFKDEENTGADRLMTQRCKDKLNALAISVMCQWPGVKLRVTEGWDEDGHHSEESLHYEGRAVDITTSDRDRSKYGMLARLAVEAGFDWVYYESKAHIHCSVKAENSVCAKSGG
modifications: N-ethyl maleimide on thiol of Cys92, Cys169
B19: mutant 25 (Shh C1II/A169C + S133C), NEM-modified (ligand)
chain: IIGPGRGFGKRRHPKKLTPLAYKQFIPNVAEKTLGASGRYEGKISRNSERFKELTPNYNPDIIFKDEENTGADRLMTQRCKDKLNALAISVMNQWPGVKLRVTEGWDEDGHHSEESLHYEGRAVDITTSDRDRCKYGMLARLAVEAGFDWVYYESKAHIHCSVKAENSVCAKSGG
modifications: N-ethyl maleimide on thiol of Cys133, Cys169
B20: mutant 17 (Shh C1II/A169C + N27C), 5 K PEG (ligand)
chain: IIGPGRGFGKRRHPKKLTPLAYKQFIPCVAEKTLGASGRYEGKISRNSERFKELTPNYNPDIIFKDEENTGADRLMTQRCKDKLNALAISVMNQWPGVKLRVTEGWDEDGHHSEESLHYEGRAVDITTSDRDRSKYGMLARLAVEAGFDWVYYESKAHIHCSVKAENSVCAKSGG
modifications: 5 K PEG maleimide on thiol of Cys27, Cys169
B21: mutant 20 (Shh C1II/A169C + N68C), NEM-modified (ligand)
chain: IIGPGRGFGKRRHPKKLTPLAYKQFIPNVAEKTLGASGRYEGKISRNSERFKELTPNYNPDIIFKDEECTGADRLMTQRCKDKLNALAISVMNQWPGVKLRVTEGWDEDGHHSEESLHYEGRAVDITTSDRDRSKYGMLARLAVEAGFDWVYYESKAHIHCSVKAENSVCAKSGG
modifications: N-ethyl maleimide on thiol of Cys68, Cys169
B22: mutant 20 (Shh C1II/A169C + N68C), 20 K PEG (ligand)
chain: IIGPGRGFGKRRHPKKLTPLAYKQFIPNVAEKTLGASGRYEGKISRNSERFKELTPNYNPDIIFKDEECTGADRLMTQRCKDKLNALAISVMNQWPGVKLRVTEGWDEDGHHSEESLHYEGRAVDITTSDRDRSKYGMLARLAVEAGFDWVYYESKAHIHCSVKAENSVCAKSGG
modifications: 20 K PEG maleimide on thiol of Cys68, Cys169
B23: mutant 22 (Shh C1II/A169C + S154C), Pyrene-modified (ligand)
chain: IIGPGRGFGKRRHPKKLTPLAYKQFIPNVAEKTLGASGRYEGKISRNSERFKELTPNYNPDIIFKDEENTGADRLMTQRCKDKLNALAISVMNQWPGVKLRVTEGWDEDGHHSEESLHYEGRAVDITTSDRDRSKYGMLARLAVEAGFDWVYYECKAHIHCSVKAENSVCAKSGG
modifications: N-(1-pyrenyl) maleimide on thiol of Cys154, Cys169
B24: mutant 25 (Shh C1II/A169C + S133C), HPE-modified (ligand)
chain: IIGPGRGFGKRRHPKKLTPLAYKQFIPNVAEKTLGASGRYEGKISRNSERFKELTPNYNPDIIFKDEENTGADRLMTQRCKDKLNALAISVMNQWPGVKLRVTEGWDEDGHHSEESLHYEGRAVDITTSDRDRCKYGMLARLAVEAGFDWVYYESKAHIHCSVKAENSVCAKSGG
modifications: beta-(4-hydroxyphenyl) ethylmaleimide on thiol of Cys133, Cys169
B25: mutant 21 (Shh C1II/A169C + N92C), 5 K PEG (ligand)
chain: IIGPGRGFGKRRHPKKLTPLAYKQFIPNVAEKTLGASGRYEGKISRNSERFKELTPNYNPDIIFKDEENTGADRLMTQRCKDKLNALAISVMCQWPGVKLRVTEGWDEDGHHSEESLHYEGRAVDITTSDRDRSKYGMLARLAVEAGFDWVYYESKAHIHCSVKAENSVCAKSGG
modifications: 5 K PEG maleimide on thiol of Cys92, Cys169
B26: mutant 18 (Shh C1II/A169C + N46C), NEM-modified (ligand)
chain: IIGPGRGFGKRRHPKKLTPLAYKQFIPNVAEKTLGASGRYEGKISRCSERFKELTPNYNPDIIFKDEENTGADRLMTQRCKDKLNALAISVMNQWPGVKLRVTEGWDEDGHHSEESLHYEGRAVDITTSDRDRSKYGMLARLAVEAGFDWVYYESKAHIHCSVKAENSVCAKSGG
modifications: N-ethyl maleimide on thiol of Cys46, Cys169
B27: mutant 21 (Shh C1II/A169C + N92C), Pyrene-modified (ligand)
chain: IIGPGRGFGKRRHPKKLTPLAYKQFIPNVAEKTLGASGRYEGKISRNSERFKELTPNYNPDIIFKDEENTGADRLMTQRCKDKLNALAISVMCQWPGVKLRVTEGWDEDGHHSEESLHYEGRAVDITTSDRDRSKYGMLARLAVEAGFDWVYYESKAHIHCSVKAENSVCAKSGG
modifications: N-(1-pyrenyl) maleimide on thiol of Cys92, Cys169
B28: mutant 22 (Shh C1II/A169C + S154C), 20 K PEG (ligand)
chain: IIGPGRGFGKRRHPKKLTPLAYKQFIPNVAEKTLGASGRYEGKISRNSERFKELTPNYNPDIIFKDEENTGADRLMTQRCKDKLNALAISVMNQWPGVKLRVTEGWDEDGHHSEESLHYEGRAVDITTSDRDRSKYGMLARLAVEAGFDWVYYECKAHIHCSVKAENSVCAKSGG
modifications: 20 K PEG maleimide on thiol of Cys154, Cys169
B29: mutant 19 (Shh C1II/A169C + Y57C), Napth-modified (ligand)
chain: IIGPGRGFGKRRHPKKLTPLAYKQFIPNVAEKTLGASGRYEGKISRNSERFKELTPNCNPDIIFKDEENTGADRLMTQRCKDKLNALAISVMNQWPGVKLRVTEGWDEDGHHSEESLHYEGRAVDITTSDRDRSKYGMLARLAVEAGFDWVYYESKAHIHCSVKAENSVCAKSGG
modifications: N-(1-naphthyl) maleimide on thiol of Cys57, Cys169

Target: T1, Shh receptor molecules on C3H10T1/2 cells (UniProt Q61115 1-1434)
T1 sequence (looked up): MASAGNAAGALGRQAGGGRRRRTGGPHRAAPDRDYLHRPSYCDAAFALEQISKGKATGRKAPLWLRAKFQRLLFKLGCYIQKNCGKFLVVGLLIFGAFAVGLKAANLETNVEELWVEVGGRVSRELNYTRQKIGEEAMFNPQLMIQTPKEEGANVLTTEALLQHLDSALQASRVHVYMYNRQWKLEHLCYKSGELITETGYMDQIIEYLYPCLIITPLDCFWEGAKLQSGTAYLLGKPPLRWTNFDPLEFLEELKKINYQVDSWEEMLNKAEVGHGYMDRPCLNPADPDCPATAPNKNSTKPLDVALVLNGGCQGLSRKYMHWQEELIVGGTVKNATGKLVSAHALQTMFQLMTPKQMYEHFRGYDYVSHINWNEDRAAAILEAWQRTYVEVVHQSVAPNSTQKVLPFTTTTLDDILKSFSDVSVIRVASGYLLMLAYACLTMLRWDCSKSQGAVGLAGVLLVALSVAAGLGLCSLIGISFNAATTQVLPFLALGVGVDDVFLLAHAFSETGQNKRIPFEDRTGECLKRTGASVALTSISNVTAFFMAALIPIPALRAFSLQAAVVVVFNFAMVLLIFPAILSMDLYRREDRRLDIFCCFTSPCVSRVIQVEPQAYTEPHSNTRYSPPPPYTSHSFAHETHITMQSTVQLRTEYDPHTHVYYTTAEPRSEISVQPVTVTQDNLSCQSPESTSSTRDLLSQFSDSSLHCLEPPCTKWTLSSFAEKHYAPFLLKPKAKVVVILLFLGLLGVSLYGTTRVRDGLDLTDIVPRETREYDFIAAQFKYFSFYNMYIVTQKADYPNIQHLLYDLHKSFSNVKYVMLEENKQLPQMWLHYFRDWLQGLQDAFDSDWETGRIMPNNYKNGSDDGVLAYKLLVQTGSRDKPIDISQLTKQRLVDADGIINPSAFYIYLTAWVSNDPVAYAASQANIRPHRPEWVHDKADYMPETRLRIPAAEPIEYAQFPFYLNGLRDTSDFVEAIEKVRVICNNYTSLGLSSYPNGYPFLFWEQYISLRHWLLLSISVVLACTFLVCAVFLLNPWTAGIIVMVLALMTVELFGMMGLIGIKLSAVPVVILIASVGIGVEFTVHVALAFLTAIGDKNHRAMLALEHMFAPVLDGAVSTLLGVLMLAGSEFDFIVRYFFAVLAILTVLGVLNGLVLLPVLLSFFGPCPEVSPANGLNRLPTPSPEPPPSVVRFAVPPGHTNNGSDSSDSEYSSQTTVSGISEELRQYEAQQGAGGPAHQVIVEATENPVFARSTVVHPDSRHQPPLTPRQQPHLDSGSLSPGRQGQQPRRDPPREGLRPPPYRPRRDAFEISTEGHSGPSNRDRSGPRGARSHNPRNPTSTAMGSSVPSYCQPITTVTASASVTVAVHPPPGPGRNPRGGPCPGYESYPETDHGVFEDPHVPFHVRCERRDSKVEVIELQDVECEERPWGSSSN
Experiment: cell-based or functional assay

Binder | Potency (IC50) in C3H10T1/2 assay (alkaline phosphatase induction) [µg/mL]
B1 | 3
B2 | 2
B3 | 0.2
B4 | 0.2
B5 | 0.4
B6 | 0.2
B7 | 0.4
B8 | 1.5
B9 | 0.3
B10 | 0.3
B11 | 3
B12 | 0.3
B13 | > 20
B14 | 0.6
B15 | 0.3
B16 | 0.5
B17 | 2
B18 | 2
B19 | 0.2
B20 | 4
B21 | 0.2
B22 | 0.4
B23 | 3
B24 | 0.2
B25 | > 20
B26 | 0.2
B27 | 3
B28 | 8
B29 | 0.2
